Like-named read-outs stand apart in the source and are kept apart here. Each block holds one substance with its values, some of them ahead of it.
How the values were obtained:
[1] = target: AcrB_(P223G) (E. coli) (UniProt P31224); experiment: native gel or EMSA
[2] = target: AcrB-CFP (E. coli) (UniProt P31224); experiment: FRET or BRET
[3] = target: AcrB-CFP (E. coli) (UniProt P31224); experiment: FRET or BRET; remark: listed apart in the source
[4] = target: AcrB_(P223G/V225C/A777C) (E. coli) (UniProt P31224); experiment: cross-linking
[5] = target: AcrB_(P223G)-CFP (E. coli) (UniProt P31224); experiment: FRET or BRET
[6] = target: AcrB_(P223G)-CFP (E. coli) (UniProt P31224); experiment: FRET or BRET; remark: listed apart in the source
[7] = target: AcrB_(V225C/A777C) (E. coli) (UniProt P31224); experiment: cross-linking

Substance: AcrB-YPet (from UniProt P31224 1-1049) (natural protein)
FRET efficiency [2]: 50%
FRET efficiency [3]: 35%

Substance: AcrB_(P223G/V225C/A777C) (from UniProt P31224 1-1049) (natural protein)
stoichiometry N [4]: 3

Substance: AcrB_(P223G)-YPet (from UniProt P31224 1-1049) (natural protein)
FRET efficiency [5]: 22%
FRET efficiency [6]: 26%

Other lines, results leading:

stoichiometry N [1]: 3
Substance: AcrB_(P223G) (from UniProt P31224 1-1049) (natural protein)

stoichiometry N [7]: 3
Substance: AcrB_(V225C/A777C) (from UniProt P31224 1-1049) (natural protein)
